Experimental data as given in paper doi:10.1101/2022.01.28.478199 (bioRxiv, 2022).
Several values for one entry are separate records, joined by “and”; a condition that tells them apart may be missing. Equal values may be shown once.

B1: Hsp78-6xHis (wild-type Hsp78 with a C-terminal 6x polyhistidine-tag) (natural protein)
chain: not shown
B2: WT Hsp78 expressed and affinity purified from E. coli (natural protein)
chain: not shown

Legend:
native gel or EMSA = molecular target: the molecule itself; test: native gel or EMSA
SEC = molecular target: the molecule itself; test: SEC

Protein | stoichiometry N (native gel or EMSA) | stoichiometry N (SEC)
B1 | 3 and 6 | 
B2 |  | 2 and 3
